Reference: patent publication US20260217847A1

What was measured:
[1] = biological target: TfR1 protein stably expressed on CHO-K1-TfR1 cells (UniProt P02786); assay: cell-based or functional assay
[2] = biological target: TfR1 on human erythroleukemia TF-1 cells (human) (UniProt P02786); assay: cell-based or functional assay
Chain of TfR1 on human erythroleukemia TF-1 cells (human) (P02786 whole entry): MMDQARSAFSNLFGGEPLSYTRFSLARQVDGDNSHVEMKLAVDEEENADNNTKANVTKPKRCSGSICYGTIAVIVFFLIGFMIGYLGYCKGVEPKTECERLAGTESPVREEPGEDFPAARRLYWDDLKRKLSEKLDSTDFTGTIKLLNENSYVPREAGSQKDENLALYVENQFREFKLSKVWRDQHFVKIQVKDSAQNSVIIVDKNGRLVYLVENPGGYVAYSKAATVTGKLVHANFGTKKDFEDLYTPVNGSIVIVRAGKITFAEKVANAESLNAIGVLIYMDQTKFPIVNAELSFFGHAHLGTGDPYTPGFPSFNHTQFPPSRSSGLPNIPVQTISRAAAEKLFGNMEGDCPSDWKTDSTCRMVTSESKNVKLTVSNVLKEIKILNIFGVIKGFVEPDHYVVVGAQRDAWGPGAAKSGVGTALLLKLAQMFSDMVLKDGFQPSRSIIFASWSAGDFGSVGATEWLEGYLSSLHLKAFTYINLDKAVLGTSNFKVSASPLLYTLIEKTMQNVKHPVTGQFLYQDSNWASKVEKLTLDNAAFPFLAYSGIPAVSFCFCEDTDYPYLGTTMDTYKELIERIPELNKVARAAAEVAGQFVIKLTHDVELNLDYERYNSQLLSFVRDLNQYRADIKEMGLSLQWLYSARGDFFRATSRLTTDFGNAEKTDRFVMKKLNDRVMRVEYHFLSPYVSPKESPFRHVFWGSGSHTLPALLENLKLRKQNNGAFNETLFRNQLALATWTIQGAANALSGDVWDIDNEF

Chain of TfR1 protein stably expressed on CHO-K1-TfR1 cells (P02786 whole entry): as above
Chain of Tab4, pabinafusp alfa targeting humanized TfR1 (antibody) (VH): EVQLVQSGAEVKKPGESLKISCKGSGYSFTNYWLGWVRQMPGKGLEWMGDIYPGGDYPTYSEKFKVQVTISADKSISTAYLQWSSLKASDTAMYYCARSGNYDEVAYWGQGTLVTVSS
Chain of Tab4, pabinafusp alfa targeting humanized TfR1 (antibody) (VL): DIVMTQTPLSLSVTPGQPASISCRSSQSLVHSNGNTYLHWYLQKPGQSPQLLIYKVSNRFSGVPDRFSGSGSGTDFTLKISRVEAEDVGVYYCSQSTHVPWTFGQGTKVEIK

Substance | CHO-K1-TfR1 internalization, fold (MFI at 37° C. to MFI at 4° C.) [1] [fold] | CHO-K1-TfR1 internalization, pHrodo label, 4° C. MFI (background value) [1] [MFI] | CHO-K1-TfR1 internalization, pHrodo label, 37° C. MFI [1] [MFI] | TF-1 cell internalization, fold (MFI at 37° C. to MFI at 4° C.) [2] [fold] | TF-1 cell internalization, pHrodo label, 4° C. MFI (background value) [2] [MFI] | TF-1 cell internalization, pHrodo label, 37° C. MFI [2] [MFI]
Tab4, pabinafusp alfa targeting humanized TfR1 (antibody) | 2.36 | 520 | 1230 | 1.83 | 712 | 1300
hIgG isotype control (antibody) | 1.53 | 464 | 711 | 1.01 | 471 | 476
